{"source": "patent US20180256645A1", "biological_target": "murine/mouse full length CXCR6 (chemokine receptor 6), expressed on transduced murine CD8+ T cells (murine/mouse) (UniProt Q9EQ16)", "sequence (Q9EQ16 1-350)": "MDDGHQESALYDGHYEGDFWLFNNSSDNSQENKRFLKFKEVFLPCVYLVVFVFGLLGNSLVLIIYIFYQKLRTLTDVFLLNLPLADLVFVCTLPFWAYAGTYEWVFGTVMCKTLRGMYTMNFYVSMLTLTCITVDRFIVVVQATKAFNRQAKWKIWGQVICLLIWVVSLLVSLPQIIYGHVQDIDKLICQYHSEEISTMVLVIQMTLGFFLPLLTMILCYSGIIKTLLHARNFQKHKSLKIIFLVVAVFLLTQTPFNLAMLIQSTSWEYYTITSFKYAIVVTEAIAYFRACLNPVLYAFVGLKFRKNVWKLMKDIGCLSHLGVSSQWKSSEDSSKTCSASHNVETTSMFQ", "assay": "cell-based or functional assay", "data": [{"substance": "recombinant CXCL16 (SEQ ID NO: 9) (Peprotech, Hamburg) (from UniProt Q8BSU2 27-114) (ligand)", "values": [{"measurement": "internalisation and recycling of CXCR6 (live confocal fluorescence microscopy)", "result": 30, "unit": "min"}]}]}
